These are literature values, as cited in publication PMC4089558.

The target in the data set is CFP10 (Mycobacterium tuberculosis) (UniProt P9WNK5).
Sequence of CFP10 (Mycobacterium tuberculosis) (P9WNK5 2-100): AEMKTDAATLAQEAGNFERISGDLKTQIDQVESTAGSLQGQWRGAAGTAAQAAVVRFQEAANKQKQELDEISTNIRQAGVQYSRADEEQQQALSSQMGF

Sequence of ESAT-6 (P9WNK7 2-95): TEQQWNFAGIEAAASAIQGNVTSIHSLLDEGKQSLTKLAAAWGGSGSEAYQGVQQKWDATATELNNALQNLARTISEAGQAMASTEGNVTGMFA

For the substance ESAT-6 (from UniProt P9WNK7), the Kd is 11 nM.

Usually Kd stands for a measure of binding affinity in units of concentration.
